Data set [1] has as its target T1, MBP-TDF1 (Arabidopsis thaliana) (UniProt Q9LSI7).
T1 sequence: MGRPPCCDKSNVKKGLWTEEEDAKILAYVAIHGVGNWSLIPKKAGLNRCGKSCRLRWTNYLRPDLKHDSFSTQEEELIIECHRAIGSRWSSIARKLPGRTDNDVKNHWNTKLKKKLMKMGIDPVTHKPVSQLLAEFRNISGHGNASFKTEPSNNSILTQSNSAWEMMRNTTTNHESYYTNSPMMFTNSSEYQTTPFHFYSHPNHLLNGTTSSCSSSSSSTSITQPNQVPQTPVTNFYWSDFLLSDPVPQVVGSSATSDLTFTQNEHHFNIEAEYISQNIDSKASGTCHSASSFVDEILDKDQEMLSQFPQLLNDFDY
The data set is described as follows: EMSA. Particulars: 10 mM Tris-HCl pH 7.5, 50 mM KCl, 1 mM DTT, 20 uL, room temperature 20 min; 6% polyacrylamide, 0.5x TBE. (In general: Mobility shift assays separate free from complexed probe on a gel.)

Data set [2] addresses T1, MBP-TDF1 (Arabidopsis thaliana). The data set is described as follows: competition. Particulars: 10 mM Tris-HCl pH 7.5, 50 mM KCl, 1 mM DTT, 20 uL, room temperature 20 min; 6% polyacrylamide, 0.5x TBE.

Regarding “TACGTGATTAGGATTTGTAACCACGTAGACGTGTAAAACAAAATTACTTTTTTATCTGTGATTTATAGGAATTTGAGATTTGAATGCAACGTTGTTGTTTCATCTAACAATAAGTGATGAAGAACTTCAAAAGTCTAAAACCATATCATTTATAAAATCA (double strand) [SKS18 promoter 18-2 probe]”, the binding result in data set [1] and in data set [2] was “binds” each time.

(Values after paper PMC10118275.)
